In publication PMC4671672:

What was measured:
[1] = molecular target: FLAG-NKX2-5 (mouse NKX2-5, pEF-FLAG-NKX2-5) (mouse) (UniProt P42582); assay: co-IP; protein extracts of COS-1 cells expressing FLAG-NKX2-5 (50 ug) and of COS-1 cells expressing GATA4 (30-84 ug) mixed; agarose bound anti-FLAG M2 antibody, overnight at +4°C in lysis buffer (20 mM Tris pH 7.5, 150 mM NaCl, 1 mM EDTA, 1 mM EGTA, 1% Triton X-100, 2.5 mM sodium pyrophosphate); immunoblot with anti-GATA4 and anti-NKX2-5; bands quantified, unspecific binding subtracted, normalized to input and to …
Chain of UniProt P42582 (P42582 whole entry): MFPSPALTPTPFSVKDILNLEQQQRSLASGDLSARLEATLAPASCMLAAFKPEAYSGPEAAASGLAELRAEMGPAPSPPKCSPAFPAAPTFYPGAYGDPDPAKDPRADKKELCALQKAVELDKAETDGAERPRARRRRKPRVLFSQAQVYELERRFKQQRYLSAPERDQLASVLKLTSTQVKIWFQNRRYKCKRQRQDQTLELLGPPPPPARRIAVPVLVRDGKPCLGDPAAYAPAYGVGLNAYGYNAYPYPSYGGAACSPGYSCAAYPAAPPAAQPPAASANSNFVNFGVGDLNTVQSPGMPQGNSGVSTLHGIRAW

[2] = molecular target: FLAG-NKX2-5 (mouse NKX2-5, pEF-FLAG-NKX2-5) (mouse) (UniProt P42582)

| Substance | percent decrease of binding vs wtGATA4 [1] [%] | other results |
| --- | --- | --- |
| mouse GATA4 Q274H (natural protein) | 47 | – |
| mouse GATA4 V217Y (natural protein) | – | GATA4-NKX2-5 transcriptional synergy, 3xNKE luciferase reporter, COS-1 cells; vs wtGATA4-NKX2-5 [2]: 146%; percent increase of binding vs wtGATA4 [1]: 235% |
| mouse GATA4 N272D (natural protein) | – | GATA4-NKX2-5 transcriptional synergy, 3xNKE luciferase reporter, COS-1 cells; reduction vs wtGATA4 [2]: 79% |
| mouse GATA4 R283Q (natural protein) | 91 | – |
| mouse GATA4 R319C (natural protein) | 89 | – |
| mouse GATA4 K299A (natural protein) | 61 | – |
| mouse GATA4 R283A (natural protein) | 84 | – |
| mouse GATA4 M298Y (natural protein) | 62 | – |
| mouse GATA4 N272S (natural protein) | – | GATA4-NKX2-5 transcriptional synergy, 3xNKE luciferase reporter, COS-1 cells; reduction vs wtGATA4 [2]: 65% |
| mouse GATA4 R264A (natural protein) | 36 | – |
